Where a chain is given by its changes, count along the chain named.
B1: MHPD1-A-44 H Fc (Fc fusion)
chain: QVQLVESGGGLVQPGGSLRLSCATSGSRTRIYAMGWFRQAPGKGLEFVAGIGWAYATEYYADSVKGRFTISRDNTKNTLYLQMNSLRAEDTAVYYCAADLDHSGFDYWGQGTLVTVSS
notes: not shown: Fc
B2: MHPD1-A-30 H Fc (Fc fusion)
chain: B1 chain with S27V, T29R, R30S, E58Q, L100I
notes: not shown: Fc
B3: MHPD1-A-25 H Fc (Fc fusion)
chain: B1 chain with S27V, T29R, R30S, E58T, H102R, S103H
notes: not shown: Fc
B4: MHPD1-A-29 H Fc (Fc fusion)
VHH: B1 chain with R28G, T29G, R30S, E58T
notes: not shown: Fc region
B5: MHPD1-A-24 H Fc (Fc fusion)
chain: B1 chain with T29H, R30S, E58T, H102R, S103A
notes: not shown: Fc
B6: MHPD1-A-15 H Fc (Fc fusion)
chain: B1 chain with S27L, T29R, R30S, A56S, E58T
notes: not shown: Fc
B7: MHPD1-A-16 H Fc (Fc fusion, not shown: a dimerising Fc or GST; small tags and cut ends)
VHH: B1 chain with T29V, R30S, E58T
B8: MHPD1-A-45 H Fc (Fc fusion)
chain: B1 chain with G26H, S27L, T29R, R30S, E58T
notes: not shown: Fc
B9: MHPD1-A-22 H Fc (Fc fusion)
VHH: B1 chain with T29R, R30S, E58T, H102R, S103G
notes: not shown: Fc region
B10: MHPD1-A-37 H Fc (Fc fusion, not shown: a dimerising Fc or GST; small tags and cut ends)
VHH: B1 chain with S27A, T29R, R30S, E58T, H102R, S103T
B11: MHPD1-A-17 H Fc (Fc fusion, not shown: a dimerising Fc or GST; small tags and cut ends)
VHH: B1 chain with R28I, T29S, R30S, E58T
B12: MHPD1-A-42 H Fc (Fc fusion)
chain: B1 chain with T29Q, R30T, E58Q
notes: not shown: Fc
B13: MHPD1-A-35 H Fc (Fc fusion)
VHH: B1 chain with G26A, S27P, T29R, R30S, A56G, E58T
notes: not shown: Fc region
B14: MHPD1-A-27 H Fc (Fc fusion)
VHH: B1 chain with G26K, T29R, R30S, E58T
notes: not shown: Fc region
B15: MHPD1-A-46 H Fc (Fc fusion, not shown: a dimerising Fc or GST; small tags and cut ends)
VHH: B1 chain with R28K, T29G, R30S, E58T, H102R
B16: MHPD1-A-49 H Fc (Fc fusion, not shown: a dimerising Fc or GST; small tags and cut ends)
VHH: B1 chain with T29R, R30S, E58T, H102R, S103V
B17: MHPD1-A-33 H Fc (Fc fusion)
VHH: B1 chain with T29S, R30Q, E58T
notes: not shown: Fc region
B18: MHPD1-A-31 H Fc (Fc fusion)
VHH: B1 chain with T29R, R30S, I51L, E58T, S103H
notes: not shown: Fc region
B19: MHPD1-A-39 H Fc (Fc fusion)
chain: B1 chain with T29R, R30S
notes: not shown: Fc
B20: MHPD1-A-23 H Fc (Fc fusion)
VHH: B1 chain with S27T, T29R, R30S, E58T
notes: not shown: Fc region
B21: MHPD1-A-28 H Fc (Fc fusion)
VHH: B1 chain with G26K, S27L, T29R, R30S, E58Q
notes: not shown: Fc region
B22: MHPD1-A-32 H Fc (Fc fusion)
chain: B1 chain with G26K, S27N, T29R, R30S, E58T
notes: not shown: Fc
B23: MHPD1-A-19 H Fc (Fc fusion, not shown: a dimerising Fc or GST; small tags and cut ends)
VHH: B1 chain with R28E, T29V, R30S, E58T, H102R, S103R
B24: MHPD1-A-18 H Fc (Fc fusion, not shown: a dimerising Fc or GST; small tags and cut ends)
VHH: B1 chain with T29S, R30S, I51L, E58T, S103L
B25: MHPD1-A-20 H Fc (Fc fusion, not shown: a dimerising Fc or GST; small tags and cut ends)
VHH: B1 chain with T29K, R30S, E58T
B26: MHPD1-A-43 H Fc (Fc fusion, not shown: a dimerising Fc or GST; small tags and cut ends)
VHH: B1 chain with T29R, R30S, E58T, H102R, S103A
B27: MHPD1-A-21 H Fc (Fc fusion, not shown: a dimerising Fc or GST; small tags and cut ends)
VHH: B1 chain with T29R, R30S, E58S
B28: MHPD1-A-38 H Fc (Fc fusion, not shown: a dimerising Fc or GST; small tags and cut ends)
VHH: B1 chain with S27N, T29R, R30S, E58T, H102R, S103R
B29: MHPD1-A-2 H Fc (Fc fusion, not shown: a dimerising Fc or GST; small tags and cut ends)
VHH: B1 chain with T24A, S27R, R28F, T29P, R30S, A54R, E58T
B30: MHPD1-A-5 H Fc (Fc fusion, not shown: a dimerising Fc or GST; small tags and cut ends)
VHH: B1 chain with T24A, R28S, T29L, R30S, E58T
B31: MHPD1-A-8 H Fc (Fc fusion)
chain: B1 chain with T24A, S27G, T29P, R30S, Y55F, E58T
notes: not shown: Fc
B32: MHPD1-A-10 H Fc (Fc fusion, not shown: a dimerising Fc or GST; small tags and cut ends)
VHH: B1 chain with T24A, R28D, T29D, A54R, E58T
B33: MHPD1-A-11 H Fc (Fc fusion, not shown: a dimerising Fc or GST; small tags and cut ends)
VHH: B1 chain with T24A, R28Q, T29L, R30S, A54R, Y55F, E58T
B34: MHPD1-A-12 H Fc (Fc fusion, not shown: a dimerising Fc or GST; small tags and cut ends)
VHH: B1 chain with T24A, R28D, T29Y, R30A, Y55F, E58T
B35: MHPD1-A-14 H Fc (Fc fusion, not shown: a dimerising Fc or GST; small tags and cut ends)
VHH: B1 chain with T24A, G26S, S27H, T29P, R30S, A54R, E58T
B36: MHPD1-A-1 H Fc (Fc fusion, not shown: a dimerising Fc or GST; small tags and cut ends)
VHH: B1 chain with T24A, R28D, T29P, R30S, Y55W, E58T, H102R
B37: MHPD1-A-9 H Fc (Fc fusion, not shown: a dimerising Fc or GST; small tags and cut ends)
VHH: B1 chain with T24A, R28G, T29H, R30S, A54S, E58T
B38: MHPD1-A-6 H Fc (Fc fusion, not shown: a dimerising Fc or GST; small tags and cut ends)
VHH: B1 chain with T24A, S27R, T29P, R30S, A54N, E58T
B39: MHPD1-A-13 H Fc (Fc fusion)
chain: B1 chain with T24A, G26H, S27A, R28D, T29P, R30S, A54N, E58T
notes: not shown: Fc
B40: MHPD1-A-H1 Fc (Fc fusion, not shown: a dimerising Fc or GST; small tags and cut ends)
VHH: QVQLVESGGGSVQPGGSLTLSCAASGSDPSIYAMGWFRQAPGKEHEFVAGIGWSAATTYYADSVKGRFGISRDNTKNTVALLMNSLKPEDTAIYYCAADLDHSGFDYWGQGTLVTVSS
notes: First round of humanization of MHPD1-A; also called humanized nanobody-Fc fusion protein

Each binder was assayed against T1, recombinant human PD-1-his protein (human, UniProt Q15116 25-167) (assay: ELISA; PD-1-his coated 2 µg/mL, anti-human IgG Fc-HRP).
T1 construct: also called hPD-1-his; not shown: his tag
Method: (§1) The plates were washed three times with PBST. 5% PBS-Milk and incubated at room temperature for 2 h. The plates were washed three times with PBST. All the nanobody-Fc fusion proteins were subject to 3-folded gradient dilution with an initial concentration of 10 μg/mL, added into each well at 30 μL/well, and incubated at room temperature for 1 hr. The plates were washed three times with PBST. The secondary antibody Goat-Anti-Human-IgG-Fc-HRP was diluted at 1:8000, added into each well at 30 μL/well, and incubated at room temperature for 50 min. The plates were washed nine times with PBST. TMB was added into each well at 30 μL/well and developed at room temperature in dark for 1 min to 5 min. 2 M hydrochloric acid was added at 30 μL/well to stop the reaction. The OD450 absorbance value was read by a microplate reader. Graphpad Prism software was used to fit the curve and calculate EC₅₀ values.

T1 sequence (Q15116 25-167 limits assumed): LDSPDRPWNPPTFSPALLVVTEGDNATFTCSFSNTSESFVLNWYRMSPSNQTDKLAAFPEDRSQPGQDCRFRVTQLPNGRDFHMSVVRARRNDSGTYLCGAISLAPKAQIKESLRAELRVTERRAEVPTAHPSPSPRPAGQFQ

EC50 [nM]	Binder
0.198	B1
0.166	B2
0.211	B3
2.18	B4
0.177	B5
0.134	B6
0.187	B7
0.146	B8
0.242	B9
0.141	B10
0.196	B11
0.193	B12
0.824	B13
0.54	B14
0.252	B15
0.171	B16
0.628	B17
0.219	B18
0.158	B19
0.152	B20
0.242	B21
0.156	B22
0.27	B23
0.178	B24
0.175	B25
0.387	B26
0.179	B27
0.421	B28

Target: T1, recombinant human PD-1-his protein
Experiment: as above
Remark: another data set of the same source
Method: as §1, with “PBS-Milk was added” for “PBS-Milk”, “3-fold” for “3-folded”, “dilutions” for “dilution”, “calculate the” for “calculate”, “value (see Table 7).” for “values.”

EC50 [nM]	Binder
0.553	B29
0.157	B30
0.169	B31
0.2	B32
0.222	B33
0.311	B34
1.22	B35
0.613	B36
0.163	B37
0.16	B38
0.14	B39

The binders below were run against T1, recombinant human PD-1-his protein (assay: ELISA (first round of humanization); PD-1-his coated 2 µg/mL, anti-human IgG Fc-HRP).
Method: 96-well ELISA plates were coated with 2 μg/mL of recombinant human PD-1-his antigen protein at 30 μL/well at 4° C. overnight. The plates were washed three times with PBST. 5% PBS-Milk was added and incubated at room temperature for 2 h. The plates were washed three times with PBST. All the nanobody-Fc fusion proteins were subject to 3-fold gradient dilutions with an initial concentration of 10 μg/mL, added into each well at 30 μL/well, and incubated at room temperature for 1 hr. The plates were washed three times with PBST. The secondary antibody Goat-Anti-Human-IgG-Fc-HRP (purchased from Sigma) was diluted at 1:8000, added into each well at 30 μL/well, and incubated at room temperature for 50 min. The plates were washed three times with PBST. TMB (purchased from SurModics) was added into each well at 30 μL/well and developed at room temperature in dark for 1 min to 5 min. 2 M hydrochloric acid was added at 30 μL/well to stop the reaction. The OD450 absorbance value was read by a microplate reader.

EC50 [µg/mL]	Binder
0.24	B40

The binders below were run against T2, recombinant human PD-1-Fc-Biotin (human, UniProt Q15116 25-167, biotin (site not stated)) (assay: competitive ELISA; PD-L1-mFc coated, 0.5 µg/mL PD-1-Fc-Biotin, streptavidin-HRP).
T2 construct: also called antigen protein human PD-1; not shown: Fc
Method: The plates were washed three times with PBST. 5% PBS-Milk was added and incubated at room temperature for 1 hr. All the nanobody-Fc fusion proteins were subject to 3-fold gradient dilutions with an initial concentration of 10 μg/mL, added into each well at 30 μL/well, and incubated at room temperature for 1 hr. […] The plates were washed with PBST between incubations.

T2 sequence (Q15116 25-167 limits assumed): as above

IC50 [nM]	Binder
1.08	B2
0.517	B6
0.944	B8
1.54	B10
1.26	B16
0.85	B19
1.2	B20
1.72	B22
1.21	B25
1.61	B27

Target: T2, recombinant human PD-1-Fc-Biotin
Experiment: as above
Remark: another data set of the same source
Method: The plates were washed three times with PBST. 5% PBS-Milk was added and incubated at room temperature for 1 hr. All the nanobody-Fc fusion proteins were subject to 3-fold gradient dilutions with an initial concentration of 10 μg/mL, added into each well at 30 μL/well, and incubated at room temperature for 1 hr. […] The well plates were washed with PBST between incubations.

IC50 [nM]	Binder
0.419	B29
0.306	B30
0.323	B31
0.287	B32
0.365	B33
0.293	B34
0.852	B35
0.572	B36
0.256	B37
0.407	B38
0.395	B39

From US20240309093A1 (MINGHUI PHARMACEUTICAL HANGZHOU, published 2024)
